Test results reported in US20210388087A1 (Chugai, published 2021).
Numbering of substitutions follows the chain as printed. Numbers in names are those of the source. Each block holds one binder with its values, some of them ahead of it.

Molecular target: T1, Human CD3eg linker (human)
T1 construct: Single chain: epsilon and gamma subunits of human CD3 joined by a 29-mer linker, Flag-tag at the C-terminus; also called recombinant human CD3
T1 chain: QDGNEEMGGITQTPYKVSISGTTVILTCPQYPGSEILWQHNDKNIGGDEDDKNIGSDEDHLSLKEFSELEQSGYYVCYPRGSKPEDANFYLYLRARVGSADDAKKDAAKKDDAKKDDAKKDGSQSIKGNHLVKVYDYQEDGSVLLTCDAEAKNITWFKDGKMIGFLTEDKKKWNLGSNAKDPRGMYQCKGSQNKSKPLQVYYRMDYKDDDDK
Assay: Biacore SPR, vs template H183/L072

B1: H183/L072 VH A56W (antibody, name in Kabat numbering, V domains shown)
VH: QVQLVESGGGLVQPGRSLRLSCAASGFTFSNAWMHWVRQAPGKGLEWVAQIKDKGNAYWAYYAPSVKGRFTISRDDSKNSIYLQMNSLKTEDTAVYYCHYVHYASASTVLPAFGVDAWGQGTTVTVSS
VL: DIVMTQSPLSLPVTPGEPASISCQASQELVHMNRNTYLHWYQQKPGQAPRLLIYKVSNRFPGVPDRFSGSGSGTDFTLKISRVEAEDVGVYYCAQGTSVPFTFGQGTKLEIK
fold change of affinity: 0.8 fold

B2: H183/L072 VH A60F (antibody, name in Kabat numbering, V domains shown)
VH: B1 VH with W59A, A63F
VL: B1 VL
fold change of affinity: 0.7 fold

B3: H183/L072 VH A57M (antibody, name in Kabat numbering, V domains shown)
VH: B1 VH with W59A, A60M
VL: B1 VL
fold change of affinity: 0.9 fold

B8: H183/L072 VH A57Y (antibody, name in Kabat numbering, V domains shown)
VH: B1 VH with W59A, A60Y
VL: B1 VL
fold change of affinity: 0.4 fold

B9: H183/L072 VH A56Y (antibody, name in Kabat numbering, V domains shown)
VH: B1 VH with W59Y
VL: B1 VL
fold change of affinity: 0.7 fold

B10: H183/L072 VH A57N (antibody, name in Kabat numbering, V domains shown)
VH: B1 VH with W59A, A60N
VL: B1 VL
fold change of affinity: 0.7 fold

B15: H183/L072 VH A57I (antibody, name in Kabat numbering, V domains shown)
VH: B1 VH with W59A, A60I
VL: B1 VL
fold change of affinity: 0.6 fold

B16: H183/L072 VH A57K (antibody, name in Kabat numbering, V domains shown)
VH: B1 VH with W59A, A60K
VL: B1 VL
fold change of affinity: 1.5 fold

B18: H183/L072 VH A57P (antibody, name in Kabat numbering, V domains shown)
VH: B1 VH with W59A, A60P
VL: B1 VL
fold change of affinity: 0.9 fold

B19: H183/L072 VH A57G (antibody, name in Kabat numbering, V domains shown)
VH: B1 VH with W59A, A60G
VL: B1 VL
fold change of affinity: 0.7 fold

B20: H183/L072 VH A57S (antibody, name in Kabat numbering, V domains shown)
VH: B1 VH with W59A, A60S
VL: B1 VL
fold change of affinity: 1.1 fold

B21: H183/L072 VH A57Q (antibody, name in Kabat numbering, V domains shown)
VH: B1 VH with W59A, A60Q
VL: B1 VL
fold change of affinity: 1.1 fold

B22: H183/L072 VH A57E (antibody, name in Kabat numbering, V domains shown)
VH: B1 VH with W59A, A60E
VL: B1 VL
fold change of affinity: 1 fold

B25: H183/L072 VH A57D (antibody, name in Kabat numbering, V domains shown)
VH: B1 VH with W59A, A60D
VL: B1 VL
fold change of affinity: 1 fold

B27: H183/L072 VH A57T (antibody, name in Kabat numbering, V domains shown)
VH: B1 VH with W59A, A60T
VL: B1 VL
fold change of affinity: 1.3 fold

B29: H183/L072 VH A57H (antibody, name in Kabat numbering, V domains shown)
VH: B1 VH with W59A, A60H
VL: B1 VL
fold change of affinity: 0.9 fold

B32: H183/L072 VH A60G (antibody, name in Kabat numbering, V domains shown)
VH: B1 VH with W59A, A63G
VL: B1 VL
fold change of affinity: 1.9 fold

B34: H183/L072 VH A60D (antibody, name in Kabat numbering, V domains shown)
VH: B1 VH with W59A, A63D
VL: B1 VL
fold change of affinity: 1.3 fold

B35: H183/L072 VH A57F (antibody, name in Kabat numbering, V domains shown)
VH: B1 VH with W59A, A60F
VL: B1 VL
fold change of affinity: 0.4 fold

B39: H183/L072 VH A57W (antibody, name in Kabat numbering, V domains shown)
VH: B1 VH with W59A, A60W
VL: B1 VL
fold change of affinity: 0.4 fold

B40: H183/L072 VH A57L (antibody, name in Kabat numbering, V domains shown)
VH: B1 VH with W59A, A60L
VL: B1 VL
fold change of affinity: 0.5 fold

B41: H183/L072 VH A57V (antibody, name in Kabat numbering, V domains shown)
VH: B1 VH with W59A, A60V
VL: B1 VL
fold change of affinity: 0.9 fold

B44: H183/L072 VH A57R (antibody, name in Kabat numbering, V domains shown)
VH: B1 VH with W59A, A60R
VL: B1 VL
fold change of affinity: 1.3 fold

B45: H183/L072 VH A60E (antibody, name in Kabat numbering, V domains shown)
VH: B1 VH with W59A, A63E
VL: B1 VL
fold change of affinity: 1.1 fold

Further lines, results first:

fold change of affinity: 1 fold
B4: H183/L072 VH A60W (antibody, name in Kabat numbering, V domains shown)
VH: B1 VH with W59A, A63W
VL: B1 VL

fold change of affinity: 0.9 fold
B5: H183/L072 VH A60K (antibody, name in Kabat numbering, V domains shown)
VH: B1 VH with W59A, A63K
VL: B1 VL

fold change of affinity: 1.1 fold
B6: H183/L072 VH A60H (antibody, name in Kabat numbering, V domains shown)
VH: B1 VH with W59A, A63H
VL: B1 VL

fold change of affinity: 1 fold
B7: H183/L072 VH A60N (antibody, name in Kabat numbering, V domains shown)
VH: B1 VH with W59A, A63N
VL: B1 VL

fold change of affinity: 1.2 fold
B11: H183/L072 VH A60L (antibody, name in Kabat numbering, V domains shown)
VH: B1 VH with W59A, A63L
VL: B1 VL

fold change of affinity: 1 fold
B12: H183/L072 VH A60M (antibody, name in Kabat numbering, V domains shown)
VH: B1 VH with W59A, A63M
VL: B1 VL

fold change of affinity: 1 fold
B13: H183/L072 VH A100M (antibody, name in Kabat numbering, V domains shown)
VH: B1 VH with W59A, A106M
VL: B1 VL

fold change of affinity: 1 fold
B14: H183/L072 VH A60V (antibody, name in Kabat numbering, V domains shown)
VH: B1 VH with W59A, A63V
VL: B1 VL

fold change of affinity: 3.7 fold
B17: H183/L072 VH A98L (antibody, name in Kabat numbering, V domains shown)
VH: B1 VH with W59A, A104L
VL: B1 VL

fold change of affinity: 1.3 fold
B23: H183/L072 VH A60S (antibody, name in Kabat numbering, V domains shown)
VH: B1 VH with W59A, A63S
VL: B1 VL

fold change of affinity: 1.1 fold
B24: H183/L072 VH A60Q (antibody, name in Kabat numbering, V domains shown)
VH: B1 VH with W59A, A63Q
VL: B1 VL

fold change of affinity: 0.7 fold
B26: H183/L072 VH A60Y (antibody, name in Kabat numbering, V domains shown)
VH: B1 VH with W59A, A63Y
VL: B1 VL

fold change of affinity: 1 fold
B28: H183/L072 VH A60R (antibody, name in Kabat numbering, V domains shown)
VH: B1 VH with W59A, A63R
VL: B1 VL

fold change of affinity: 0.5 fold
B30: H183/L072 VH A60P (antibody, name in Kabat numbering, V domains shown)
VH: B1 VH with W59A, A63P
VL: B1 VL

fold change of affinity: 0.9 fold
B31: H183/L072 VH A60T (antibody, name in Kabat numbering, V domains shown)
VH: B1 VH with W59A, A63T
VL: B1 VL

fold change of affinity: 0.2 fold
B33: H183/L072 VH A98P (antibody, name in Kabat numbering, V domains shown)
VH: B1 VH with W59A, A104P
VL: B1 VL

fold change of affinity: 0.6 fold
B36: H183/L072 VH A60I (antibody, name in Kabat numbering, V domains shown)
VH: B1 VH with W59A, A63I
VL: B1 VL

fold change of affinity: 4.6 fold
B37: H183/L072 VH A98I (antibody, name in Kabat numbering, V domains shown)
VH: B1 VH with W59A, A104I
VL: B1 VL

fold change of affinity: 1 fold
B38: H183/L072 VH A98M (antibody, name in Kabat numbering, V domains shown)
VH: B1 VH with W59A, A104M
VL: B1 VL

fold change of affinity: 1.2 fold
B42: H183/L072 VH A100L (antibody, name in Kabat numbering, V domains shown)
VH: B1 VH with W59A, A106L
VL: B1 VL

fold change of affinity: 1.4 fold
B43: H183/L072 VH A100I (antibody, name in Kabat numbering, V domains shown)
VH: B1 VH with W59A, A106I
VL: B1 VL
